Data from patent US20210300974, “ARTIFICIAL TRANSCRIPTION FACTORS COMPRISING A SLIDING DOMAIN AND USES THEREOF” (THE BROAD INSTITUTE, INC., published 2021).
Primed or numbered codes have the meaning given here. Ends that are not written are not given here. TMR(3) = tetramethylrhodamine (TMR) label conjugated to the Cys side chain

Legend:
TMR-KKKK-NH2 (synthetic) = tested on: T1, TMR-KKKK-NH2 (synthetic); experiment: FP; settings: 2 mM NaCl, pH 7.4
T1 sequence: KKKK

[1] = tested on: T2, TMR-(RL)4-NH2 (synthetic); experiment: FP; settings: 2 mM NaCl, pH 7.4
T2 sequence: RRRR

[2] = tested on: T3, TMR-KRRR (C-terminal carboxylate) (synthetic); experiment: FP; settings: CITED (Xiong et al); pH 7.4; cited from earlier work
T3 sequence: KRRR

[3] = tested on: T4, TMR-beta3(RRRK)-NH2 (synthetic); experiment: FP; settings: 2 mM NaCl, pH 7.4
T4 sequence: RRRK

TMR-RRRR-NH2 (synthetic) = tested on: T5, TMR-RRRR-NH2 (synthetic); experiment: FP; settings: 2 mM NaCl, pH 7.4
T5 sequence: RRRR

TMR-RRRK-NH2 (synthetic) = tested on: T6, TMR-RRRK-NH2 (synthetic); experiment: FP; settings: 2 mM NaCl, pH 7.4
T6 sequence: RRRK

[4] = tested on: T7, TMR-beta3(KRRR)-NH2 (synthetic); experiment: FP; settings: 2 mM NaCl, pH 7.4
T7 sequence: KRRR

[5] = tested on: T8, TMR-RRRR (C-terminal carboxylate) (synthetic); experiment: FP; settings: CITED (Xiong et al); pH 7.4; cited from earlier work
T8 sequence: RRRR

TMR-KRRR-NH2 (synthetic) = tested on: T9, TMR-KRRR-NH2 (synthetic); experiment: FP; settings: 2 mM NaCl, pH 7.4
T9 sequence: KRRR

[6] = tested on: TMR-(RS)4-NH2 (synthetic); experiment: FP; settings: 2 mM NaCl, pH 7.4
[7] = tested on: T10, TMR-(CH2)5-KRRR-NH2 (synthetic); experiment: FP; settings: 2 mM NaCl, pH 7.4
T10 sequence: KRRR

KRRRC(-TMR)-NH2 = target: T11, KRRRC(-TMR)-NH2 (synthetic); experiment: FP; 2 mM NaCl, pH 7.4; text p253 states 46 ± 9; settings: tags: TMR on Cys; free N-terminal amine; C-terminal amide
T11 chain: KRRRC(TMR(3))-NH2

Molecule	Kd (TMR-KKKK-NH2 (synthetic)) [nM]	Kd [1] [nM]	Kd [2] [nM]	Kd [3] [nM]	Kd (TMR-RRRR-NH2 (synthetic)) [nM]	Kd (TMR-RRRK-NH2 (synthetic)) [nM]	Kd [4] [nM]	Kd [5] [nM]	Kd (TMR-KRRR-NH2 (synthetic)) [nM]	Kd [6] [nM]	Kd [7] [nM]	Kd (KRRRC(-TMR)-NH2) [nM]
GACGACTAGGACGACGACGAGGATGACGAC (double strand) [30-mer dsDNA]	53	13	197	49	31	28	41	236	46	129	46	–
30-mer dsDNA (dsDNA) DNA 1: GACGACTAGGACGACGACGAGGATGACGAC DNA 2: GTCGTCATCCTCGTCGTCGTCCTAGTCGTC	–	–	–	–	–	–	–	–	–	–	–	54
